The source of these data is patent EP3574020B1.

The assay addresses commercially-prepared stable A-beta42 Oligomers (SynAging) (human). In words: SPR; antibody covalently immobilized, stable A-beta42 oligomers at 1 microM. A general note: Surface plasmon resonance follows binding to a sensor surface in real time, without labels.

Chain of commercially-prepared stable A-beta42 Oligomers (SynAging) (human) (peptide, as listed by the source): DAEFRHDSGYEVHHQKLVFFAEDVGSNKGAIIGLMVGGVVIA

negative control IgG1 (antibody) showed a binding response units (BRU), mean of 2.5 BRU.
